Laboratory results as given in patent US20110091386A1 (GENE TECHNO SCIENCE, published 2011).
One block for each binder: values may come before it.

Tests used:
[1] = biological target: T1, hOPN5 peptide CVDTYDGRGDSVVYGLRS conjugated to bovine serum albumin (human, N-terminal Cys coupled to BSA (via EMCS in section 6.2)); assay: ELISA, hOPN5-BSA coated at 1 ug/ml, HRP anti-human gamma chain, A405
T1 construct: also called hOPN5-BSA; hOPN-BSA
T1 peptide: CVDTYDGRGDSVVYGLRS
Experimental: The affinity of humanized 35B6 IgG1/κ was compared to that of chimeric 35B6 IgG1/κ by ELISA. As an antigen, synthetic oligopeptide ([…] (SEQ ID NO:79) conjugated to bovine serum albumin (hOPN5-BSA) was used. In a typical experiment, an ELISA plate was coated with 100 μl/well of 1 μg/ml hOPN-BSA in PBS overnight at 4° C., washed with Wash Buffer, and blocked with 300 μl/well of Blocking Buffer for 1 hr at room temperature. After washing with Wash Buffer, 100 μl/well of samples appropriately diluted in ELISA Buffer were applied to the ELISA plate. After incubating the ELISA plate overnight at 4° C. and washing with Wash Buffer, bound antibodies were detected using 100 μl/well of 1/2,000-diluted HRP-conjugated goat anti-human γ chain polyclonal antibody (SouthernBiotech). After incubating for 1 hr at room temperature and washing with Wash Buffer, color development was performed by adding 100 μl/well of ABTS substrate and stopped with 100 μl/well of 2% oxalic acid. Absorbance was read at 405 nm. As shown in FIG. 41A-41B, the binding of humanized 35B6 IgG1/κ to hOPN5-BSA was similar to (FIG. 41A) or indistinguishable from (FIG. 41B) that of chimeric 35B6 IgG1/κ.

[2] = biological target: T2, murine osteopontin (murine, UniProt P10923 17-294); assay: ELISA, protein coated at 5 ug/ml, HRP anti-murine IgG, A490
T2 construct: mature; Secreted recombinant protein; also called mOPN; murine OPN
T2 sequence (P10923 17-294): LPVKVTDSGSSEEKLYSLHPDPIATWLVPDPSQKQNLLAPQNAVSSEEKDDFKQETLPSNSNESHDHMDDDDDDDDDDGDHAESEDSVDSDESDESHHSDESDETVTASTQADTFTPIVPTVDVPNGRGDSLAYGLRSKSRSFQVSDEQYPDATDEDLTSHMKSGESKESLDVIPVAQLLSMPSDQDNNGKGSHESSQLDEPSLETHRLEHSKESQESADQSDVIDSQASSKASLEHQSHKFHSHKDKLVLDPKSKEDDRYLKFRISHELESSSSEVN
Experimental: (§1) Binding ability of the monoclonal antibodies 33E10 and 35B6 to ECM proteins was detected by ELISA using 96 well plate immobilized with hOPN, mOPN, FN, VN or laminin obtained above. A 96 well plate was immobilized with peptides (10 μg/ml) or proteins (5 μg/ml) by cultivating at 37° C. for an hour, blocked with 0.1% BSA/PBS/0.05% NaN₃ solution, and then reacted with various concentrations of antibodies at 37° C. for an hour. Next, the plate was reacted with HRP labeled anti-murine IgG antibody (Jackson ImmunoResearch Laboratories, Inc.) as secondary antibody at 37° C. for 30 minutes, added OPD as chromogen, added 1N H₂SO₄ to stop the reaction, and then detected absorbance at 490 nm.

[3] = biological target: T3, human osteopontin (human, UniProt P10451 17-314); assay: as above
T3 construct: mature; Secreted recombinant protein; also called hOPN; human OPN
T3 sequence (P10451 17-314): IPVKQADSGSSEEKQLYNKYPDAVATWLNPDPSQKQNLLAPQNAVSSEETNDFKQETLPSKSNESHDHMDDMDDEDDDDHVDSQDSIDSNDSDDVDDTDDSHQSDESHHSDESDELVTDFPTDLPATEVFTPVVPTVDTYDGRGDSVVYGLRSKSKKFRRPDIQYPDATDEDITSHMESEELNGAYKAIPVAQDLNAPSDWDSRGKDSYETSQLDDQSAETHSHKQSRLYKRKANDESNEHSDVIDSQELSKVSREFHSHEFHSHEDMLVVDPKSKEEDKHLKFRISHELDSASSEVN
Experimental: as §1

[4] = biological target: T4, peptide CGRGDS (human and murine, N-terminal Cys coupled to BSA via EMCS); assay: ELISA, BSA-coupled peptide coated at 10 ug/ml
T4 construct: Synthetic peptide, BSA conjugate on the ELISA plate
T4 peptide: CGRGDS
Text: (§2) Peptides of amino acid sequence of […] (mOPN1) (SEQ ID NO:73), […] (mOPN5) (SEQ ID NO:71), […] (SEQ ID NO:74), CPNGRGD (SEQ ID NO:75), […] (SEQ ID NO: 76) […] (SEQ ID NO: 77), […] (SEQ ID NO:78) and […] (SEQ ID NO:72) which include murine OPN derived partial peptide, a peptide of amino acid sequence […] (SEQ ID NO:79) and […] (SEQ ID NO:80) which include human OPN derived partial peptide, and a peptide of amino acid sequence CGRGDS (SEQ ID NO:81) which include common peptide sequence of human OPN and murine OPN were coupled to BSA (Sigma corporation) via EMCS (Dojin) and used for ELISA.
as §1, with “A” for “Binding ability of the monoclonal antibodies 33E10 and 35B6 to ECM proteins was detected by ELISA using 96 well plate immobilized with hOPN, mOPN, FN, VN or laminin obtained above. A”

[5] = biological target: T5, peptide CVDVPNGRGDS (murine, N-terminal Cys coupled to BSA via EMCS); assay: ELISA, BSA-coupled peptide coated at 10 ug/ml
T5 construct: Synthetic peptide, BSA conjugate on the ELISA plate
T5 peptide: CVDVPNGRGDS
Text: as §2
as §1, with “A” for “Binding ability of the monoclonal antibodies 33E10 and 35B6 to ECM proteins was detected by ELISA using 96 well plate immobilized with hOPN, mOPN, FN, VN or laminin obtained above. A”

[6] = biological target: T6, peptide CPNGRGD (murine, N-terminal Cys coupled to BSA via EMCS); assay: ELISA, BSA-coupled peptide coated at 10 ug/ml
T6 construct: Synthetic peptide, BSA conjugate on the ELISA plate
T6 peptide: CPNGRGD
Text: as §2
as §1, with “A” for “Binding ability of the monoclonal antibodies 33E10 and 35B6 to ECM proteins was detected by ELISA using 96 well plate immobilized with hOPN, mOPN, FN, VN or laminin obtained above. A”

[7] = biological target: T1, hOPN5 peptide CVDTYDGRGDSVVYGLRS …; assay: ELISA, BSA-coupled peptide coated at 10 ug/ml, HRP anti-murine IgG, A490
[8] = biological target: T7, peptide CGDSLAYGLR (murine, N-terminal Cys coupled to BSA via EMCS); assay: as above
T7 peptide: CGDSLAYGLR

[9] = biological target: T8, peptide CGDSLAYG (murine, N-terminal Cys coupled to BSA via EMCS); assay: as above
T8 construct: Synthetic peptide, BSA conjugate on the ELISA plate
T8 peptide: CGDSLAYG

[10] = biological target: T9, mOPN5 peptide CVDVPNGRGDSLAYGLR (murine, N-terminal Cys coupled to BSA via EMCS (ELISA of section 6.2)); assay: as above
T9 construct: BSA conjugate in section 6.2; 'antigen peptide solid phase' in the hybridoma screen of section 6.1; also called antigen peptide
T9 peptide: CVDVPNGRGDSLAYGLR

[11] = biological target: T10, peptide CGRGDSLAYGLR (murine, N-terminal Cys coupled to BSA via EMCS); assay: as above
T10 construct: Synthetic peptide, BSA conjugate on the ELISA plate
T10 peptide: CGRGDSLAYGLR

[12] = biological target: T11, human vitronectin (human, UniProt P04004 20-478); assay: ELISA, protein coated at 5 ug/ml, HRP anti-murine IgG, A490
T11 construct: Bought protein; also called VN
T11 sequence (P04004 20-478 limits assumed): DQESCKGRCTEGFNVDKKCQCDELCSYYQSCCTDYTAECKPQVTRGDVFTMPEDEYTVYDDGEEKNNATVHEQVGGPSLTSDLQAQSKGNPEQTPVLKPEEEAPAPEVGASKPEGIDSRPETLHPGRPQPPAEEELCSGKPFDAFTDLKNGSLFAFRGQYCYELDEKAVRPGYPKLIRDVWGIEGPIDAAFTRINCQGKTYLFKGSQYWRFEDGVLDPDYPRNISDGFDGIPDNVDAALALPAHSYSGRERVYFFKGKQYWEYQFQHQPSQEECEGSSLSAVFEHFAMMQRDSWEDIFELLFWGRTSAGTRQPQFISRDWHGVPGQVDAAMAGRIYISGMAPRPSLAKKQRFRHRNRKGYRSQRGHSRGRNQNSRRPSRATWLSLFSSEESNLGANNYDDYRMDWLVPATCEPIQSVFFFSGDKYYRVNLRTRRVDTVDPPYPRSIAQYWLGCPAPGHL
Experimental: as §1

[13] = biological target: T12, peptide CSLAYGLR (murine, N-terminal Cys coupled to BSA via EMCS); assay: ELISA, BSA-coupled peptide coated at 10 ug/ml
T12 construct: Synthetic peptide, BSA conjugate on the ELISA plate
T12 peptide: CSLAYGLR
Text: as §2
as §1, with “A” for “Binding ability of the monoclonal antibodies 33E10 and 35B6 to ECM proteins was detected by ELISA using 96 well plate immobilized with hOPN, mOPN, FN, VN or laminin obtained above. A”

[14] = biological target: T13, peptide CSVVYGLR (human, N-terminal Cys coupled to BSA via EMCS); assay: ELISA, BSA-coupled peptide coated at 10 ug/ml
T13 construct: Synthetic peptide, BSA conjugate on the ELISA plate
T13 peptide: CSVVYGLR
Text: as §2
as §1, with “A” for “Binding ability of the monoclonal antibodies 33E10 and 35B6 to ECM proteins was detected by ELISA using 96 well plate immobilized with hOPN, mOPN, FN, VN or laminin obtained above. A”

[15] = biological target: T4, peptide CGRGDS; assay: ELISA, BSA-coupled peptide coated at 10 ug/ml, HRP anti-murine IgG, A490
[16] = biological target: T5, peptide CVDVPNGRGDS; assay: as above
[17] = biological target: T6, peptide CPNGRGD; assay: as above

B1: humanized 35B6 IgG1/kappa antibody (antibody, V domains shown)
VH: QVQLVQSGAEVKKPGASVKVSCKASGYTFTNYWMHWVRQAPGQGLEWIGNINPRNGDSNYNEKFRSKASLTVDKSTSTVYMELSSLRSEDTAVYYCARGYFDVWGQGTTVTVSS
VL: DIQMTQSPSSLSASVGDRVTITCKASQDINSYLSWFQQKPGKAPKTLIYRANRLVDGVPSKFSGSGSGQDFTLTISSLQPEDFATYYCLQYDEFPFTFGQGTKLEIK
notes: Tested as culture supernatant of transiently transfected HEK293 cells; also called Hu35B6
- binding result [1]: binds

B2: mouse anti-RGD monoclonal antibody 35B6 (FERM BP-10441) (antibody, mouse IgG1, V domains shown)
VH: QVQLQQPGTELVKPGASVKLSCKASGYTFTNYWMHWVKQRPGQGLEWIGNINPRNGDSNYNEKFRSKASLTVDKSSSTVYMQLSSLTSEDSAVYYCARGYFDVWGTGTTVTVSS
VL: DIKMTQSPSSMYASLGERVSITCKASQDINSYLSWFQQKSGKSPKTLIYRANRLVDGVPSRFSGSGSGQDFSLTISSLEYEDMGIYYCLQYDEFPFTFGSGTKLEIK
notes: Mouse IgG1 from hybridoma
- binding result [2]: binds
- binding result [3]: binds
- binding result [4]: no binding
- binding result [5]: no binding
- binding result [6]: no binding
- binding result [7]: binds
- binding result [8]: binds
- binding result [9]: binds
- binding result [10]: binds
- binding result [11]: binds

Results, then the binder that gave them:

- binding result [1]: binds
B3: chimeric 35B6 IgG1/kappa antibody (antibody, V domains shown)
VH: QVQLQQPGTELVKPGASVKLSCKASGYTFTNYWMHWVKQRPGQGLEWIGNINPRNGDSNYNEKFRSKASLTVDKSSSTVYMQLSSLTSEDSAVYYCARGYFDVWGTGTTVTVSS
VL: DIKMTQSPSSMYASLGERVSITCKASQDINSYLSWFQQKSGKSPKTLIYRANRLVDGVPSRFSGSGSGQDFSLTISSLEYEDMGIYYCLQYDEFPFTFGSGTKLEIK
notes: Tested as culture supernatant of transiently transfected HEK293 cells; also called Ch35B6

- binding result [12]: binds
- binding result [2]: binds
- binding result [3]: binds
- binding result [13]: no binding
- binding result [14]: no binding
- binding result [7]: binds
- binding result [10]: binds
- binding result [15]: binds
- binding result [16]: binds
- binding result [17]: binds
B4: mouse anti-RGD monoclonal antibody 33E10 (FERM BP-10440) (antibody, mouse IgG1, V domains shown)
VH: EVKLVESGGGLVQPGGSLSLSCAASGFTFTDYYMIWVRQPPGKALEWLGFIRNKANGYTTEYSASVKGRFTISRDNSQSILYLQMNALRAEDSATYYCARGAYWGQGTLVTVSA
VL: DVLMTQTPLSLPVSLGDQASISCRSSQSIVHSNGNTYLEWYLQKPGQSPKLLIYRVSNRFSGVPDRFSGSGSGTDFTLKISRVEAEDLGVYYCFQGSFVPWTFGGGTKLEIK
notes: Mouse IgG1 from hybridoma, purified on an antigen peptide column
